From patent US20180214568A1 come the findings set out here.

The target of experiment [1] is CD56 on the surface of human neuroblastoma cells (human) (UniProt P13591). Put plainly: flow cytometry, isotype control staining of Kelly cells. Background: Flow cytometry measures light scatter and fluorescence of single cells or particles in a stream.
The target is the same in experiment [2]. Description: flow cytometry, isotype control staining of SKNAS cells.
Experiment [3] has the same target. Put plainly: flow cytometry, MY31 staining of SKNAS cells after overnight treatment with 12.5 nM m906 (remaining surface CD56).
Experiment [4] has the same target. Put plainly: flow cytometry, MY31 staining of Kelly cells, untreated.
Experiment [5] has the same target. Put plainly: flow cytometry, MY31 staining of Kelly cells after overnight treatment with 50 nM m906 (remaining surface CD56).
For experiment [6] the target is unchanged. Put plainly: flow cytometry, MY31 staining of SKNAS cells after overnight treatment with 25 nM m906 (remaining surface CD56).
The target is the same in experiment [7]. Description: flow cytometry, MY31 staining of SKNAS cells, untreated.
Experiment [8] has the same target. Put plainly: flow cytometry, MY31 staining of SKNAS cells after overnight treatment with 50 nM m906 (remaining surface CD56).
The target is the same in experiment [9]. Put plainly: flow cytometry, MY31 staining of Kelly cells after overnight treatment with 25 nM control IgG.
The target is the same in experiment [10]. Put plainly: flow cytometry, MY31 staining of SKNAS cells after overnight treatment with 25 nM control IgG.
Experiment [11] has the same target. Put plainly: flow cytometry, MY31 staining of Kelly cells after overnight treatment with 12.5 nM m906 (remaining surface CD56).
For experiment [12] the target is unchanged. Put plainly: flow cytometry, MY31 staining of Kelly cells after overnight treatment with 25 nM m906 (remaining surface CD56).

Turning to PE Isotype Control (antibody), the Geometric Mean in experiment [1] was 4710; in [2] it was 10700.

anti-CD56 antibody MY31: the Geometric Mean in experiment [3] was determined as 10200; in [4], 53700; in [5], 6030; in experiment [6], 10600; in experiment [7], 12500; in [8] it was 10300. Further, the Geometric Mean in experiment [9] amounted to 63700; in experiment [10] it was 13300; in experiment [11] it was 7150; in [12], 6420.
